In the MegaScale stability set (Tsuboyama et al. 2023):

B1: HEEH_KT_rd6_3632 (parent)
chain: DAEELIELVERALKEGREIILLGVRITSEEAGKWFIEWIRRFL

Variants of: B1
Experiment: folding stability dG (cDNA display proteolysis); higher = more stable
Conditions: PBS, room temperature

| Variant | folding stability dG |
| --- | --- |
| DAEELIELVERALKEGREIILLGVRITSEEAGKWFIEDIRRFL | 2 kcal/mol |
| DAEELIELVERALKEGREIILLGVRITSEEAGKWFIEHIRRFL | 2.82 kcal/mol |
| DAEELIELVERALKEGREIILLGVRITSEEAGKWFIERIRRFL | 2.89 kcal/mol |
| DAEELIELVERALKEGREIILLGVRITSEEAGKWFIENIRRFL | 2.8 kcal/mol |
| DAEELIELVERALKEGREIILLGVRITSEEAGKWFIEGIRRFL | 2.34 kcal/mol |
| DAEELIELVERALKEGREIILLGVRITSEEAGKWFIEVIRRFL | 2.96 kcal/mol |
| DAEELIELVERALKEGREIILLGVRITSEEAGKWFIETIRRFL | 2.79 kcal/mol |
| DAEELIELVERALKEGREIILLGVRITSEEAGKWFIEAIRRFL | 2.95 kcal/mol |
| DAEELIELVERALKEGREIILLGVRITSEEAGKWFIEMIRRFL | 3.32 kcal/mol |
| DAEELIELVERALKEGREIILLGVRITSEEAGKWFIEFIRRFL | 3.65 kcal/mol |
| DAEELIELVERALKEGREIILLGVRITSEEAGKWFIELIRRFL | 3.42 kcal/mol |
| DAEELIELVERALKEGREIILLGVRITSEEAGKWFIESIRRFL | 2.71 kcal/mol |
| DAEELIELVERALKEGREIILLGVRITSEEAGKWFIEPIRRFL | 2.26 kcal/mol |
| DAEELIELVERALKEGREIILLGVRITSEEAGKWFIEYIRRFL | 3.37 kcal/mol |
| DAEELIELVERALKEGREIILLGVRITSEEAGKWFIEQIRRFL | 2.96 kcal/mol |
| DAEELIELVERALKEGREIILLGVRITSEEAGKWFIEKIRRFL | 2.86 kcal/mol |
| DAEELIELVERALKEGREIILLGVRITSEEAGKWFIEEIRRFL | 2.62 kcal/mol |
| DAEELIELVERALKEGREIILLGVRITSEEAGKWFIECIRRFL | 3.94 kcal/mol |
| DAEELIELVERALKEGREIILLGVRITSEEAGKWFIEIIRRFL | 3.2 kcal/mol |
| DAEELIELVERALKEGREIILLGVRITSEEAGKWWIEWIRRFL | 3.44 kcal/mol |
| DAEELIELVERALKEGREIILLGVRITSEEAGKWYIEWIRRFL | 3.25 kcal/mol |
| DAEELIELVERALKEGREIILLGVRITSEEAGKWTIEWIRRFL | 2.96 kcal/mol |
| DAEELIELVERALKEGREIILLGVRITSEEAGKWVIEWIRRFL | 3.65 kcal/mol |
| DAEELIELVERALKEGREIILLGVRITSEEAGKWFIDWIRRFL | 3.57 kcal/mol |

| Variant | folding stability dG |
| --- | --- |
| DAEELIELVERALKEGREIILLGVRITSEEAGKWFINWIRRFL | 3.62 kcal/mol |
| DAEELIELVERALKEGREIILLGVRITSEEAGKWFITWIRRFL | 3.47 kcal/mol |
| DAEELIELVERALKEGREIILLGVRITSEEAGKWFIKWIRRFL | 3.66 kcal/mol |
| DAEELIELVERALKEGREIILLGVRITSEEAGKWFIWWIRRFL | 3.88 kcal/mol |
| DAEELIELVERALKEGREIILLGVRITSEEAGKWFIAWIRRFL | 3.81 kcal/mol |
| DAEELIELVERALKEGREIILLGVRITSEEAGKWFIIWIRRFL | 3.87 kcal/mol |
| DAEELIELVERALKEGREIILLGVRITSEEAGKWFIMWIRRFL | 3.83 kcal/mol |
| DAEELIELVERALKEGREIILLGVRITSEEAGKWFIQWIRRFL | 3.67 kcal/mol |
| DAEELIELVERALKEGREIILLGVRITSEEAGKWFIHWIRRFL | 3.46 kcal/mol |
| DAEELIELVERALKEGREIILLGVRITSEEAGKWFIGWIRRFL | 3.42 kcal/mol |
| DAEELIELVERALKEGREIILLGVRITSEEAGKWFIRWIRRFL | 3.62 kcal/mol |
| DAEELIELVERALKEGREIILLGVRITSEEAGKWFIPWIRRFL | 2.92 kcal/mol |
| DAEELIELVERALKEGREIILLGVRITSEEAGKWFIYWIRRFL | 3.92 kcal/mol |
| DAEELIELVERALKEGREIILLGVRITSEEAGKWFIVWIRRFL | 3.79 kcal/mol |
| DAEELIELVERALKEGREIILLGVRITSEEAGKWFILWIRRFL | 3.93 kcal/mol |
| DAEELIELVERALKEGREIILLGVRITSEEAGKWFISWIRRFL | 3.52 kcal/mol |
| DAEELIELVERALKEGREIILLGVRITSEEAGKWFIFWIRRFL | 3.7 kcal/mol |
| DAEELIELVERALKEGREIILLGVRITSEEAGKWFIEWHRRFL | 2.73 kcal/mol |
| DAEELIELVERALKEGREIILLGVRITSEEAGKWFIEWPRRFL | 2.22 kcal/mol |
| DAEELIELVERALKEGREIILLGVRITSEEAGKWFIEWRRRFL | 2.71 kcal/mol |
| DAEELIELVERALKEGREIILLGVRITSEEAGKWFIEWTRRFL | 2.46 kcal/mol |
| DAEELIELVERALKEGREIILLGVRITSEEAGKWFIEWQRRFL | 2.63 kcal/mol |
| DAEELIELVERALKEGREIILLGVRITSEEAGKWFIEWFRRFL | 3.46 kcal/mol |
| DAEELIELVERALKEGREIILLGVRITSEEAGKWFIEWWRRFL | 3.23 kcal/mol |

| Variant | folding stability dG |
| --- | --- |
| DAEELIELVERALKEGREIILLGVRITSEEAGKWFIEWARRFL | 2.92 kcal/mol |
| DAEELIELVERALKEGREIILLGVRITSEEAGKWFIEWCRRFL | 3.49 kcal/mol |
| DAEELIELVERALKEGREIILLGVRITSEEAGKWFIEWGRRFL | 2.66 kcal/mol |
| DAEELIELVERALKEGREIILLGVRITSEEAGKWFIEWMRRFL | 3.58 kcal/mol |
| DAEELIELVERALKEGREIILLGVRITSEEAGKWFIEWLRRFL | 4.03 kcal/mol |
| DAEELIELVERALKEGREIILLGVRITSEEAGKWFIEWVRRFL | 3.62 kcal/mol |
| DAEELIELVERALKEGREIILLGVRITSEEAGKWFIEWSRRFL | 2.66 kcal/mol |
| DAEELIELVERALKEGREIILLGVRITSEEAGKWFIEWKRRFL | 2.56 kcal/mol |
| DAEELIELVERALKEGREIILLGVRITSEEAGKWFIEWNRRFL | 2.64 kcal/mol |
| DAEELIELVERALKEGREIILLGVRITSEEAGKWFIEWDRRFL | 2.51 kcal/mol |
| DAEELIELVERALKEGREIILLGVRITSEEAGKWFIEWYRRFL | 3.43 kcal/mol |
| DAEELIELVERALKEGREIILLGVRITSEEAGKWFIEWERRFL | 2.69 kcal/mol |
| DAEELIELVERALKEGREIILLGVRITSEEAGKWFIEWIRRAL | 3.21 kcal/mol |
| DAEELIELVERALKEGREIILLGVRITSEEAGKWFIEWIRRDL | 2.51 kcal/mol |
| DAEELIELVERALKEGREIILLGVRITSEEAGKWFIEWIRVFL | 3.7 kcal/mol |
| DAEELIELVERALKEGREIILLGVRITSEEAGKWFIEWIRQFL | 3.6 kcal/mol |
| DAEELIELVERALKEGREIILLGVRITSEEAGKWFIEWIRSFL | 3.72 kcal/mol |
| DAEELIELVERALKEGREIILLGVRITSEEAGKWFIEWIRHFL | 3.64 kcal/mol |
| DAEELIELVERALKEGREIILLGVRITSEEAGKWFIEWIRYFL | 3.81 kcal/mol |
| DAEELIELVERALKEGREIILLGVRITSEEAGKWFIEWIRFFL | 3.95 kcal/mol |
| DAEELIELVERALKEGREIILLGVRITSEEAGKWFIEWIRKFL | 3.76 kcal/mol |
| DAEELIELVERALKEGREIILLGVRITSEEAGKWFIEWIRGFL | 3.45 kcal/mol |
| DAEELIELVERALKEGREIILLGVRITSEEAGKWFIEWIRNFL | 3.57 kcal/mol |
| DAEELIELVERALKEGREIILLGVRITSEEAGKWFIEWIRPFL | 2.84 kcal/mol |

| Variant | folding stability dG |
| --- | --- |
| DAEELIELVERALKEGREIILLGVRITSEEAGKWFIEWIRDFL | 3.05 kcal/mol |
| DAEELIELVERALKEGREIILLGVRITSEEAGKWFIEWIRIFL | 3.74 kcal/mol |
| DAEELIELVERALKEGREIILLGVRITSEEAGKWFIEWIRLFL | 3.81 kcal/mol |
| DAEELIELVERALKEGREIILLGVRITSEEAGKWFIEWIRTFL | 3.63 kcal/mol |
| DAEELIELVERALKEGREIILLGVRITSEEAGKWFIEWIRMFL | 3.93 kcal/mol |
| DAEELIELVERALKEGREIILLGVRITSEEAGKWFIEWIRWFL | 4.14 kcal/mol |
| DAEELIELVERALKEGREIILLGVRITSEEAGKWFIEWIRCFL | 4.34 kcal/mol |
| DAEELIELVERALKEGREIILLGVRITSEEAGKWFIEWIREFL | 3.37 kcal/mol |
| DAEELIELVERALKEGREIILLGVRITSEEAGKWFIEWIRAFL | 3.62 kcal/mol |
| DAEELIELVERALKEGREIILLGVRITSEEAGKWFIEWIFRFL | 3.87 kcal/mol |
| DAEELIELVERALKEGREIILLGVRITSEEAGKWFIEWINRFL | 3.14 kcal/mol |
| DAEELIELVERALKEGREIILLGVRITSEEAGKWFIEWIIRFL | 3.77 kcal/mol |
| DAEELIELVERALKEGREIILLGVRITSEEAGKWFIEWIGRFL | 3.04 kcal/mol |
| DAEELIELVERALKEGREIILLGVRITSEEAGKWFIEWIERFL | 2.85 kcal/mol |
| DAEELIELVERALKEGREIILLGVRITSEEAGKWFIEWIKRFL | 3.69 kcal/mol |
| DAEELIELVERALKEGREIILLGVRITSEEAGKWFIEWIHRFL | 3.32 kcal/mol |
| DAEELIELVERALKEGREIILLGVRITSEEAGKWFIEWIPRFL | 2.68 kcal/mol |
| DAEELIELVERALKEGREIILLGVRITSEEAGKWFIEWITRFL | 3.46 kcal/mol |
| DAEELIELVERALKEGREIILLGVRITSEEAGKWFIEWISRFL | 3.27 kcal/mol |
| DAEELIELVERALKEGREIILLGVRITSEEAGKWFIEWILRFL | 3.83 kcal/mol |
| DAEELIELVERALKEGREIILLGVRITSEEAGKWFIEWICRFL | 4.03 kcal/mol |
| DAEELIELVERALKEGREIILLGVRITSEEAGKWFIEWIMRFL | 3.89 kcal/mol |
| DAEELIELVERALKEGREIILLGVRITSEEAGKWFIEWIYRFL | 3.69 kcal/mol |
| DAEELIELVERALKEGREIILLGVRITSEEAGKWFIEWIQRFL | 3.32 kcal/mol |

| Variant | folding stability dG |
| --- | --- |
| DAEELIELVERALKEGREIILLGVRITSEEAGKWFIEWIVRFL | 3.48 kcal/mol |
| DAEELIELVERALKEGREIILLGVRITSEEAGKWFIEWIARFL | 3.39 kcal/mol |
| DAEELIELVERALKEGREIILLGVRITSEEAGKWFIEWIDRFL | 2.87 kcal/mol |
| DAEELIELVERALKEGREIILLGVRITSEEAGKWFIEWIWRFL | 3.85 kcal/mol |
| DAEELIELVERALKEGREIILLGVRITSEEAGKWFHEWIRRFL | 3.15 kcal/mol |
| DAEELIELVERALKEGREIILLGVRITSEEAGKWFSEWIRRFL | 3.02 kcal/mol |
| DAEELIELVERALKEGREIILLGVRITSEEAGKWFREWIRRFL | 3.17 kcal/mol |
| DAEELIELVERALKEGREIILLGVRITSEEAGKWFQEWIRRFL | 3.11 kcal/mol |
| DAEELIELVERALKEGREIILLGVRITSEEAGKWFMEWIRRFL | 3.37 kcal/mol |
| DAEELIELVERALKEGREIILLGVRITSEEAGKWFWEWIRRFL | 3.76 kcal/mol |
| DAEELIELVERALKEGREIILLGVRITSEEAGKWFGEWIRRFL | 2.92 kcal/mol |
| DAEELIELVERALKEGREIILLGVRITSEEAGKWFKEWIRRFL | 3.26 kcal/mol |
| DAEELIELVERALKEGREIILLGVRITSEEAGKWFAEWIRRFL | 3.35 kcal/mol |
| DAEELIELVERALKEGREIILLGVRITSEEAGKWFNEWIRRFL | 2.93 kcal/mol |
| DAEELIELVERALKEGREIILLGVRITSEEAGKWFEEWIRRFL | 2.97 kcal/mol |
| DAEELIELVERALKEGREIILLGVRITSEEAGKWFTEWIRRFL | 3.09 kcal/mol |
| DAEELIELVERALKEGREIILLGVRITSEEAGKWFVEWIRRFL | 3.36 kcal/mol |
| DAEELIELVERALKEGREIILLGVRITSEEAGKWFFEWIRRFL | 3.44 kcal/mol |
| DAEELIELVERALKEGREIILLGVRITSEEAGKWFDEWIRRFL | 3.04 kcal/mol |
| DAEELIELVERALKEGREIILLGVRITSEEAGKWFYEWIRRFL | 3.46 kcal/mol |
| DAEELIELVERALKEGREIILLGVRITSEEAGKWFLEWIRRFL | 3.52 kcal/mol |
| DAEELIELVERALKEGREIILLGVRITSEEAGKWFPEWIRRFL | 2.59 kcal/mol |
